Experiment: soluble fraction after stress (log2 fold change); higher = more stays soluble; pooled small domains, quantitative proteomics
Conditions: stress: pH 4
How it was run: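 With high-throughput quantitative proteomics, pooled custom libraries of small protein domains were measured after pH 4 stress. Each domain's soluble amount after the stress gives a fold change taken as aggregation propensity. Higher log2 values mean more of the domain stayed soluble.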

Sequence	soluble fraction (log2)
HMKPDDDMLLKILTKLFIQKQFVINSKDIFQYILKNTNRTYENIINIVNRLDTLSIEKKRQLTIPLIKEI	-0.555
HMGAIVTGTVVEIRSDVVIVNAGLKSEGVVPIEQFRNEAGELEVSVGDEVKVALDALEDGFGETRLS	-1.97
HMKVTADVVVADRLKAWIISNNLKPGDRLPTEQKLSEELGVARHTLREGIKRLSQLGIIGSRTGSGMYVKN	0.158
HMGGAYATVKLSSSSSQLNVRASASTASRVVARLSHGFRVEVLGVSGDWVKIRALGVEGYVARAYLALEGE	-0.17
HMEAYSAEAVRFRIKAMIESETVDDVMSDDKIVERLLADGVDIARRTVAKYREAMNIPSSVKRRRKLKGM	-0.962
HMKQVSDTGAIDAAIREVMDANPDKVAEYRSGKDKLFGFFVGQIMRAMAGKAAPVVVNDRLKALLD	0.32
HMEETGFYIKLQDQEVVIFHNDQVTPYEYTGIREEVLPESELEKLREGFFVEDEKELYSVLENLS	-0.412
HMTDLNQIGERIKGLRDALGYSPEKMASILEQKVDDYLAYEEGTKDISLSVLQRIEKEFDIDLSTLLFGT	-1.17
HMEVIDQLFKIALTLFDIDKGENNSISQDLVDKVIEQMKTTAPTFIKRELSEDEVKKLRFEIQNHFNV	-0.411
HMSNVKVYPNPTSGKLTIDAENYKGVEVYDTSGRLIVKSELRTIDLEEQSKGLYLLKVNANGTTQEFKVFK	-0.977
HMDTFYKNLSKKIKTIREKLSFSQEALAKELGISRVAISQIENGDRKISAEEIAKLSRVFNVPTDILLN	0.131
HMQKPIKPVKMHTVGPKENLSSIGRMYEVNGRVLANYNNIDYDKGLTIGQVLKIPPKGTTLEQVT	0.0149
HMRKLTDRQRQILDLIKTIIAETGAPPTRAEISTALGFKSANAAQEHLQALAQKGMIDLVSGASRGIRLRG	-0.194
HMTVKEYNRAVDEYSDAVWRFIRGNLRDEDRANDIVQDSFEKLWMHVTEIDYSVAKSWLFSTAYNNMIDI	-0.899
HMDIDGVSENGRLILAALDKEALDFDTLAAETGIQESRLRTELTLLEIRKLIMKLPGQRYRLI	0.28
HMVEPTDFTYLKAEVETAKALKQADYTVATWKSFAGELAEAEEVIAKTDASQAEVNEALSHLQAAEKELV	0.215
HMSGDYRPLYPNLPESEKSEAFNLLAGSALPARLDDRTGDIMVPADRYYEARMILANAGFAD	0.053
HMDYYSILGVDRNATGEDIKKAFKKKAMKYHPDRNPDNKESERKFKEAKEAYDTLSNPQKKSMYDQFGT	0.141
HMDGLGLGAVILAQRKRQGWTQEDLAARIGVSKGAVSKWETGQSYPDLPLVPRLAALFHITVDELLDYR	0.263
HMENVMLRNFAIQATEAGVIKLLEDQRTFVWGSNNKKFMTVPFDEHPYSAMAAFFKTDEGLEIYKSIEKKF	-1.43
HMTTHERHEIIELLRQVGDPMRPKEISEALGKPSGAIRFLLSKLTEEGAIKKTGYGQYTYIP	-0.0635
HMTATVPDSEAGIRLDVYAAALLGVSRAGAQKYIESGAVRVNGLPAPKNRRLESGDVIEAVLPDPE	≥ 0.43
HMSTEAFLGTEGEVVLPLLPDGLGKIRLHVADQDVELPARTGGEPIQIRERVVVVRFRDGIAEVEPAP	-0.525
HMSYDAINGYEPSDLRGSLTLEQTASMLNLPLTDVYARLGLPANYPSGATLKDGAADMGMGLSDFKHQLF	0.0723
HMTNEPRLTNMGFNKMLIENYKMILEYQDFFIRISTQIGIININGFDLKLGEMTADEVLVTGKIESIDL	≥ 0.43
HMFPTLNEDEQTIVSALQKINDQPINTLSIHTALPIPRLTSLLFQLEIKGVIKQLAGGTYHVL	-0.147
HMSVTSIEGRVVYDENANKIGIAKQVGIDSTQSMVLVLTKNDGTEGSISWNNIKKIGEIILLGN	-1.34
HMLQADALADPVGWALRTLGFDLEAGTPERSAIQRSFRQSLIEAHPDHGGADDEAAQRIADITEARRILLA	-0.858

Sequence	soluble fraction (log2)
HMQTLGADLRALRKARGLTLTDMAETLGRSVGWLSQVERDLSEPSITDLRHMARTLGVSVSMLFS	-0.553
HMSVISVETAKSKALAHAGLTASKVTFIENKLEWDDGRQVYDIEFYTSDYKEYDYTIDAVSGQVLEFDY	0.114
HMERPPHELLSDREYQTMVMIASGRTLTQIAEEMSLSPKTVSVYRARLLEKMKLKNNAELTHYALKHKLV	-0.2
HMVGGIAIGQFNVPRGSVKVTAGGRLLQEGLDYTVNYQAGRVQILDESLKNSNVPIEISTESNS	-0.111
HMQPVLSDAEVNDLKNIAGGERGYNQLMDWAGNNLTAQDAKSYDDVLATGNKAAISFAIKALMGQYEDAN	-0.453
HMDLLESLSAREREVVHLASRGLVNKLIARELGITERTVKAHLSSAFEKLHIKDRVHLALLVNGI	-0.48
HMTGGMVTYIIEKGEGFFSLERKFGLSENELIKLNPSLKSGLKSEMQINIPKENYDRYVASS	0.206
HMTTGEIIQRERTRLGLSQEKLAEQVGVSRQAVSKWELGDAVPDTDKLVPLARTLGISVDTLLD	0.0499
HMEDNLMIVVQVNGKKRSEIKVSIDASEDQIKQTALAEPNVQKFVEGHTIRKMILVPSKLLNIVV	≥ 0.43
HMKQTFGAMLAALRKEKGMTQLELAEQMGVTDKAVSKWERDLSFPDVTSLPRLAEILEVSVDELMQ	-0.724
HMTANTLDLTYSQFLENVKNGSVNDVTIRGNNVSGNFSDGRKFKTYAVNDPTLVEKLTKMGVNISAAPL	0.14
HMKKPKTVLSEEQKEFIINQAQDGVSAYDIARILFPSVNVTNLSKEVIDVAEFIRDTDIKLLADSE	-0.132
HMLQIADEYLDRLQALFEDVRDNHFAIGDLLVELVDMHDSRRVDVINYIAGRLAISPTTLYDYENTARR	-0.966
HMNYLDVNIPVTSAVWMGKQLPEMGTLIYLTPDKDVEGMLFIKQATKDKPDGEYIEAKVLGYKEGRVLFDF	-1.48
HMTNKQEYAYQWLKSSIIENKIKPSTLLVERHLSEMLHISRTPVRTALMRLADEGFVVISPGRGMVVA	-0.0492
HMDEFQLTPREQEILGLLVKGYTYKRIASELNLSYATVNRHVSNVYVKLRVHSVNEAVALAVRKGL	-0.543
HMETGKLIKELRLKKGMTQEELADKTEVSSRTIQRIENGEVDPRAYTLQMIARALEVDYSLFME	-0.683
HMSIEIKTIDVKHADLFQLQDILRNLYPELNIVPDQRNNKLILQGKRELLVEAERLTLQLDTE	-1.29
HMDAVSTMIENLRVKTGKSLADWVGLAKGSGADKHGAMVGWLKSEHGLTHGYANLIAHETFRSAA	0.0144
HMVNHEERKRLIAEATWRTISHVGIEQASVRTIAKEAGLSLGALRYYFTTQEELLRFSMQLVQERV	0.0598
HMVKDLEIETIRLNNLLASDAEEVLKSLGGAKPTYKAVAVPGSNSLVIEGTKADLIKLKSIINALEDGS	-0.316
HMSEMVIPEDFLAALETNPQAKAFYATLNRQNQYAVYHRLQTAKRPETRAKRIADFVAQLAAGKRF	-0.00136
HMQRYYDVLGLQKGVSPEELKKTYRELSKKYHPDAHHNSPLRDLAEAKFKEINEAYEKIKEFLDNNF	-0.597
HMGAIVTVPDLAGRPQPGAEAELRRSGLVPKVRTSYSLTGTRGTVISQTPPAGSRVREGAEVEVVVSRGLN	0.0493
HMGKGVDKIMKMADDYSYGKIAGKTVDVMTAKLFQAAYNKAPQKAKDKVDKMNEKQLYIFMMNLWKRF	0.0998
HMALKQADFDFIRQMIQQRAAIVLDDNKHYFVESRLGPVVEETGSKSLDQLIDQLRSSSNSLLQQKVTEAI	-0.324
HMHDIPDITDLRPLRHTLGLTLAHAAQQLNTTTATISRLERGQHRNDHLATTYRTWLHTHPT	0.08
